Numbered stars: 1 amine (or outer) side, 2 acyl side, 3 side chain; on linkers, the order of the positions; unused ones are H or OH. Square brackets hold non-standard residues; d marks the D form. Ends that are not written are not given here. Peptide text beside a SMILES is read from it. * marks the point of attachment. BAT = N6,N9-bis(2-methyl-2-mercaptopropyl)-6,9-diazanonanoic acid (chelator), CC(C)(S)CNCCN(CCCCC(=O)*)CC(C)(C)S; C(Acm) = CC(=O)NCSC[C@H](N[*:1])C(=O)[*:2]; X1 = CC(C)(S)CNCCN(CCCCC(=O)*)CC(C)(C)S; pGlu = O=C1CC[C@@H](C(=O)O)N1; Picolinoyl = O=C(c1ccccn1)*; Acm = CC(=O)NC*; For = O=C*
Tests used:
infected muscle tissue = assay: in vivo; design: species or system New Zealand white rabbits; conditions: rabbit; for Blood (% ID/g) / Control Muscle (% ID/g): iv
Description: (§1) After 24 h, the animals were sedated by i.m. injection of ketamine and xylazine, and then injected i.v. with Tc-99m labeled peptide (≤150 μg, 2-10 mCi). The animals were positioned supine in the field of view of a gamma camera (LEAP colimator/photopeaked for Tc-99m) and imaged over the first hour post-injection, and then at approximately 1 h intervals over the next three hours post injection. Animals were allowed to recover between image acquisitions and re-anesthetized as needed.
(§2) Upon completion of the final imaging, each animal was sacrificed by overdose of phenobarbital i.v. and dissected to obtain samples of blood and of infected and control muscle tissue. The tissue samples were weighed, and along with a standard amount of the injected dose, were counted using a gamma counter, and the percent injected dose (per gram of tissue) remaining in the tissues was determined. Ratios of percent of injected dose per gram of infected versus non-infected muscle tissue, and of infected muscle tissue versus blood, were calculated for each peptide. Scintiphotos of whole body and leg images of a rabbit injected with a Tc-99m labeled reagent of the invention, having the formula

in vivo = assay: in vivo; design: species or system New Zealand white rabbits; conditions: rabbit, iv
Description: as §1, §2

[1] = New Zealand white, total radioactivity, Blood (% ID/g)
[2] = New Zealand white, total radioactivity, Control Muscle (% ID/g)

| Molecule | Ratio of Infected/Blood (infected muscle tissue) | Ratio of Infected/Control (infected muscle tissue) | tissue uptake (in vivo; Blood (% ID/g)) | tissue uptake (in vivo; Control Muscle (% ID/g)) | tissue uptake (in vivo; [1]) | tissue uptake (in vivo; [2]) | Blood (% ID/g) (infected muscle tissue) | Control Muscle (% ID/g) (infected muscle tissue) |
| --- | --- | --- | --- | --- | --- | --- | --- | --- |
| CSCC[C@H](NC=O)C(=O)N[C@@H](CC(C)C)C(=O)N[C@@H](Cc1ccccc1)C(=O)N[C@@H](CCCCNC(=O)CCCCN(CCNCC(C)(C)S)CC(C)(C)S)C(N)=O (99mTc complex, metal not drawn) [formyl.MLFK.[BAT]amide, formyl.MLFK.[BAT].amide] (For-MLFK(X1)-NH2) | 3.58 | 7.68 | 0.006 %ID/g | 0.0028 %ID/g |  |  |  |  |
| CCCC(CCC)(NC(=O)[C@H](CCSC)NC=O)C(=O)N[C@@H](Cc1ccccc1)C(=O)NCCCCCN(CCNCC(C)(C)S)CC(C)(C)S [formyl.M.Dpg.F.[BAM], formyl.M.DpgF.[BAM]] | 3.53 | 15.14 |  |  | 0.003 %ID/g | 0.0007 %ID/g |  |  |
| CC(C)C[C@H](NC(=O)C1(NC=O)CCSCC1)C(=O)N[C@@H](Cc1ccccc1)C(=O)NCCCCCN(CCNCC(C)(C)S)CC(C)(C)S [formyl.Thp.LF.[BAM]] | 0.83 | 4.80 |  |  | 0.006 %ID/g | 0.001 %ID/g |  |  |
| (acetyl.CCAcm GCAcm PLYKKIIKKLLES)2.BSME ({Ac-Cys-C(Acm)-Gly-C(Acm)}-PLYKKIIKKLLES; also: dimer via BSME, Tc-99m label) [(Ac.CCAcm GCAcm PLYKKIIKKLLES)2 BSME] | 0.84 | 7.45 |  |  |  |  | 0.010 % ID/g | 0.0011 % ID/g |
| CAcm GCAcm (VGVAPG)3 amide (C(Acm)GC(Acm)VGVAPGVGVAPGVGVAPG-NH2; also: Tc-99m label) | 1.69 | 3.94 |  |  |  |  | 0.011 % ID/g | 0.0017 % ID/g |
| CAcm GCAcm TKPR (C(Acm)GC(Acm)TKPR; also: Tc-99m label) | 2.07 | 2.40 |  |  |  |  | 0.003 % ID/g | 0.0025 % ID/g |
| Pic.GC(VGVAPG)3 amide (Picolinoyl-GCVGVAPGVGVAPGVGVAPG-NH2; numbers in words are those of the source; also: Tc-99m label) [PicGC(VGVAPG)3 amide] | 0.69 | 5.58 |  |  |  |  | 0.015 % ID/g | 0.0019 % ID/g |
| [BAT].(VPGVG)4 amide ({BAT}-VPGVGVPGVGVPGVGVPGVG-NH2; also: Tc-99m label) | 1.68 | 5.33 |  |  |  |  | 0.002 % ID/g | 0.0006 % ID/g |
| [BAT].GGPLYKKIIKKLLES ({BAT}-GGPLYKKIIKKLLES; also: Tc-99m label) | 0.50 | 7.00 |  |  |  |  | 0.004 % ID/g | 0.0003 % ID/g |
| acetyl.CAcm GCAcm GGG(VPGVG)4 amide (Ac-C(Acm)GC(Acm)GGGVPGVGVPGVGVPGVGVPGVG-NH2; also: Tc-99m label) [Ac.CAcm GCAcm GGG(VPGVG)4 amide] | 0.63 | 3.97 |  |  |  |  | 0.049 % ID/g | 0.0077 % ID/g |
| acetyl.CGGGPLYKKIIKKLLES (Ac-CGGGPLYKKIIKKLLES) [Ac.CGGGPLYKKIIKKLLES] | 0.74 | 4.70 |  |  |  |  | 0.032 % ID/g | 0.0050 % ID/g |
| acetyl.KKKKKCAcm GCAcm GGPLYKKIIKKLLES (Ac-KKKKKC(Acm)GC(Acm)GGPLYKKIIKKLLES; also: Tc-99m label) [Ac.KKKKKCAcm GCAcm GGPLYKKIIKKLLES] | 0.93 | 5.60 |  |  |  |  | 0.006 % ID/g | 0.0019 % ID/g |
| pGlu.GVNDNEEGFFSARCAcm GCAcm amide ([pGlu]GVNDNEEGFFSARC(Acm)GC(Acm)-NH2; also: Tc-99m label) | 0.68 | 5.68 |  |  |  |  | 0.024 % ID/g | 0.0029 % ID/g |

Source: US5989519A, “Technetium-99m labeled peptides for imaging inflammation” (Diatide, Inc., priority 1994, dated 1999)
